Patent publication US7799901B2, “Modulators of the function of FAS receptors and other proteins” (Yeda Research and Development Co. Ltd., priority 1995, dated 2010)

T1: MORT-1 (Homo sapiens, UniProt Q13158, G32V)
T1 sequence (Q13158 with tags, fused parts or gaps G32V): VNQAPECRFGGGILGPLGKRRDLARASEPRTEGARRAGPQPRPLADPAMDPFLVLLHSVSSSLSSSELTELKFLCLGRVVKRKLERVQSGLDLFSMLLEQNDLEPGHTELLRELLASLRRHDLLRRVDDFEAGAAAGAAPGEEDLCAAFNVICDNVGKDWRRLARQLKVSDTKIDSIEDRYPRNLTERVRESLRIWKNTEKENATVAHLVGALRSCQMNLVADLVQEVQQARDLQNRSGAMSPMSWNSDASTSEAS

B1: MACHβ1: MACH isoform, cDNA SEQ ID NO: 4, amino acid SEQ ID NO: 5; lacks the CED3/ICE homology region (protein)
chain: MDFSRNLYDIGEQLDSEDLASLKFLSLDYIPQRKQEPIKDALMLFQRLQEKRMLEESNLSFLKELLFRINRLDLLITYLNTRKEEMERELQTPGRAQISAYRVMLYQISEEVSRSELRSFKFLLQEEISKCKLDDDMNLLDIFIEMEKRVILGEGKLDILKRVCAQINKSLLKIINDYEEFSKERSSSLEGSPDEFSNDFGQSLPNEKQTSGILSDHQQSQFCKSTGESAQTSQH
B2: MACHα1 (C360S): MACHα1 mutant in which the catalytic cysteine Cys360 is replaced by Ser (protein)
chain: MDFSRNLYDIGEQLDSEDLASLKFLSLDYIPQRKQEPIKDALMLFQRLQEKRMLEESNLSFLKELLFRINRLDLLITYLNTRKEEMERELQTPGRAQISAYRVMLYQISEEVSRSELRSFKFLLQEEISKCKLDDDMNLLDIFIEMEKRVILGEGKLDILKRVCAQINKSLLKIINDYEEFSKERSSSLEGSPDEFSNGEELCGVMTISDSPREQDSESQTLDKVYQMKSKPRGYCLIINNHNFAKAREKVPKLHSIRDRNGTHLDAGALTTTFEELHFEIKPHDDCTVEQIYEILKIYQLMDHSNMDCFICCILSHGDKGIIYGTDGQEAPIYELTSQFTGLKCPSLAGKPKVFFIQASQGDNYQKGIPVETDSEEQPYLEMDLSSPQTRYIPDEADFLLGMATVNNCVSYRNPAEGTWYIQSLCQSLRERCPRGDDILTILTEVNYEVSNKDDKKNMGKQMPQPTFTLRKKLVFPSD

How the values were obtained:
MORT-1 = target: T1, MORT-1; assay: Two-hybrid β-galactosidase filter assay (FIG. 5), binding to MORT-1; parameters: the full-length MORT-1 cDNA was used (MORT 1); expressed in transfected cells; host or cells: SFY526 yeast; conditions: two hybrid test
Description: (§1) The yeast two-hybrid test was further applied to evaluate the specificity of binding of MACH to MORT-1, in particular, to define the region in MORT-1 to which MACH binds, as well as to determine which of the MACH ORFs interacts with MORT-1, the procedures being as set forth herein above in Examples 1 and 2. Briefly, various MORT-1 and MACH constructs were prepared for testing the interaction of the proteins encoded by the Gal4 DNA-binding domain and activation domain constructs within transfected SFY526 yeast cells as assessed by the β-galactosidase expression filter assay. The DNA-binding domain constructs were prepared in pGBT9 vectors and the activation domain constructs were prepared in pGAD-GM vectors. For the activation domain constructs, the full-length MACH cDNA was used (MACH), as was a construct encoding only the ORF-B (MACH B) region. Control activation domain constructs were those containing the full-length MORT-1 coding sequence (MORT 1, positive control) and those having no inserts, i.e., “empty” vectors (pGAD-GM). For the DNA-binding domain constructs, the full-length MORT-1 cDNA was used (MORT 1), as were constructs encoding only the MORT-1 […] (MORT-1DD aa 130-245). […] In the assay, the development of color was determined, where the greater the color development, the greater the interaction between the constructs encoded by the DNA-binding domain and activation domain; Color development was depicted by symbols, where “+++” and “+” indicate the development of a strong color within 30 and 90 min. of the assay, respectively, and “−−−” indicates the lack of development of color within 24 hrs. of the assay. […]
(§2) In FIG. 5, there is shown the results of the interaction of MORT-1 and MACH within transfected yeast cells. […] Their interaction was assessed by a β-galactosidase expression filter assay as described in Boldin et al (1995b). […]

MACHβ1 = target: T2, MACHβ1 (Homo sapiens, UniProt Q14790); assay: Two-hybrid β-galactosidase filter assay (FIG. 5), binding to MACHβ1; conditions: two hybrid test
T2 construct: a construct encoding only the ORF-B (MACH B) region; expressed in transfected cells; host or cells: SFY526 yeast
Description: as §1, §2

Molecule	binding to MORT-1 in transfected yeast (MORT-1)	binding to MACHβ1 in transfected yeast (MACHβ1)
MACHα1: MACH isoform, cDNA SEQ ID NO: 14, amino acid SEQ ID NO: 7; contains CED3/ICE homology region	scored clearly positive	scored clearly positive
B1	binds	self-associated
B2	bound	bound
